According to patent US20230250154A1 (CYTONICS, published 2023):

Legend:
Assay in all cases: cell-based or functional assay
ADAMTS5 = target: T1, ADAMTS5 (human, UniProt Q9UNA0 262-622, limits assumed)
T1 sequence (looked up): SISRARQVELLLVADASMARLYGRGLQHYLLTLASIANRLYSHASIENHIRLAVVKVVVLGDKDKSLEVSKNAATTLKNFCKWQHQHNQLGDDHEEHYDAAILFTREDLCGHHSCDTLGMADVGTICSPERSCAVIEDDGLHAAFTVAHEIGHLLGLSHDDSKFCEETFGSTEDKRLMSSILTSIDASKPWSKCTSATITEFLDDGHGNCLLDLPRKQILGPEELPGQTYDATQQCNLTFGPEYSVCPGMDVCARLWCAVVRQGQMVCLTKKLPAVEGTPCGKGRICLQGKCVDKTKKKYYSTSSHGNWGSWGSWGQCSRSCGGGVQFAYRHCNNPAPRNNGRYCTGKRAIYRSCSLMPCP

MMP1 = target: T2, MMP1 (human, UniProt P03956 100-469, limits assumed)
T2 sequence (looked up): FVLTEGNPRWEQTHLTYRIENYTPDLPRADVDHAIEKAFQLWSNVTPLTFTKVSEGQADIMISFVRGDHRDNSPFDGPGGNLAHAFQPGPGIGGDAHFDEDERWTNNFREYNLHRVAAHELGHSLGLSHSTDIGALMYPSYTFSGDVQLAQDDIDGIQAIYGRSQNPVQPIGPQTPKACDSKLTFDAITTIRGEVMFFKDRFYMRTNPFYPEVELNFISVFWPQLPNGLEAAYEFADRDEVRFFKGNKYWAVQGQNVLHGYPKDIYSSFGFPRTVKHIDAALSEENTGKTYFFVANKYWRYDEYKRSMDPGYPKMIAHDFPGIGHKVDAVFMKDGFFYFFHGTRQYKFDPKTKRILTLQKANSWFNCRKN

MMP8 = MMP8 (human, UniProt P22894 101-467, limits assumed)
MMP13 = MMP13 (human, UniProt P45452 104-471, limits assumed)
MMP2 = target: T3, MMP2 (human, UniProt P08253 110-660, limits assumed)
T3 sequence (looked up): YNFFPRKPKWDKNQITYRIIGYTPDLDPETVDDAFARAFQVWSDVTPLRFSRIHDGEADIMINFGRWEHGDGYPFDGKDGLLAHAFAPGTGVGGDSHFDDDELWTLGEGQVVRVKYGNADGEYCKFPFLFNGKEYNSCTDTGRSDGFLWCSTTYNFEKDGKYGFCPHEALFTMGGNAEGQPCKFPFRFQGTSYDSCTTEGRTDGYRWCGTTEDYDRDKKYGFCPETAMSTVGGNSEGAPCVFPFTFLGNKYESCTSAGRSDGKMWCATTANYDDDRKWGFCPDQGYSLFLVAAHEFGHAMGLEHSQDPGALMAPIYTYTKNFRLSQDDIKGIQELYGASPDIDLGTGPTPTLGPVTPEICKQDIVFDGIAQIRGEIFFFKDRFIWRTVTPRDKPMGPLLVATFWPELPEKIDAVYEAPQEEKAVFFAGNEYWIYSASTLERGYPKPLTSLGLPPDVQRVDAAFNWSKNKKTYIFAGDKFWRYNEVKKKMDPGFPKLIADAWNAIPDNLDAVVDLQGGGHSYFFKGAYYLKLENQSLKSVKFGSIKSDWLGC

MMP9 = MMP9 (human, UniProt P14780 107-707, limits assumed)
MMP3 = MMP3 (human, UniProt P08254 100-477, limits assumed)
Elastase = target: Elastase
Cathepsin G = target: T4, Cathepsin G (UniProt P08311 21-244)
T4 sequence (looked up): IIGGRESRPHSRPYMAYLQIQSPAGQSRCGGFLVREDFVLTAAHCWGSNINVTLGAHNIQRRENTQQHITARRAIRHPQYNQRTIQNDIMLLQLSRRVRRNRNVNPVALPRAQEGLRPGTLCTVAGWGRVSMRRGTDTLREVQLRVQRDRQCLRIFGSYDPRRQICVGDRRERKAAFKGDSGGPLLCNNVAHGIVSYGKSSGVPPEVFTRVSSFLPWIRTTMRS

MMP7 = target: T5, MMP7 (UniProt P09237 95-267, limits assumed)
T5 sequence (looked up): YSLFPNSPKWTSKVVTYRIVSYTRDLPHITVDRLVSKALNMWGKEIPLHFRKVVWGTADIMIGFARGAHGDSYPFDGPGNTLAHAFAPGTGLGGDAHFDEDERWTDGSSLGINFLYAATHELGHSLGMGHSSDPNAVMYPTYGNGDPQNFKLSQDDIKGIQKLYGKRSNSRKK

Sequence of MMP8 (P22894 101-467 limits assumed): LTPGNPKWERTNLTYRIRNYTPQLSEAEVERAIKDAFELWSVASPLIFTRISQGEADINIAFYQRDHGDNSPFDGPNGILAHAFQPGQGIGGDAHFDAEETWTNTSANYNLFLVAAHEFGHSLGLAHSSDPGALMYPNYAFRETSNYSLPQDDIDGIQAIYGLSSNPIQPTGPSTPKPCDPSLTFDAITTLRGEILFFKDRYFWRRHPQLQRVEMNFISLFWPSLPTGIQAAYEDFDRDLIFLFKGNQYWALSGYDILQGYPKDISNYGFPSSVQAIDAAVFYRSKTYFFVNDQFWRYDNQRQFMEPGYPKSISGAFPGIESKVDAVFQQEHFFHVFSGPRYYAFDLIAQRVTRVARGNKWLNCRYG
Sequence of MMP3 (P08254 100-477 limits assumed): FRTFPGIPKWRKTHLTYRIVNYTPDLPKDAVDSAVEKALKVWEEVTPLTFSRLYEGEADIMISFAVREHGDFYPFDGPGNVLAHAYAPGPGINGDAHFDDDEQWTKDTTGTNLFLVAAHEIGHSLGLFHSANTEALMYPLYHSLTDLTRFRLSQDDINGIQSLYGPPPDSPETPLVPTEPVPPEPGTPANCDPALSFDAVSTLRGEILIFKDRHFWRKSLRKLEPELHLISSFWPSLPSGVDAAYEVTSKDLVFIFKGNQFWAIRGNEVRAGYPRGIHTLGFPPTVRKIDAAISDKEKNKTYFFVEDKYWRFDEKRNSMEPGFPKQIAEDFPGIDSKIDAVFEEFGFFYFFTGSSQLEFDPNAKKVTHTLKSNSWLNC
Sequence of MMP9 (P14780 107-707 limits assumed): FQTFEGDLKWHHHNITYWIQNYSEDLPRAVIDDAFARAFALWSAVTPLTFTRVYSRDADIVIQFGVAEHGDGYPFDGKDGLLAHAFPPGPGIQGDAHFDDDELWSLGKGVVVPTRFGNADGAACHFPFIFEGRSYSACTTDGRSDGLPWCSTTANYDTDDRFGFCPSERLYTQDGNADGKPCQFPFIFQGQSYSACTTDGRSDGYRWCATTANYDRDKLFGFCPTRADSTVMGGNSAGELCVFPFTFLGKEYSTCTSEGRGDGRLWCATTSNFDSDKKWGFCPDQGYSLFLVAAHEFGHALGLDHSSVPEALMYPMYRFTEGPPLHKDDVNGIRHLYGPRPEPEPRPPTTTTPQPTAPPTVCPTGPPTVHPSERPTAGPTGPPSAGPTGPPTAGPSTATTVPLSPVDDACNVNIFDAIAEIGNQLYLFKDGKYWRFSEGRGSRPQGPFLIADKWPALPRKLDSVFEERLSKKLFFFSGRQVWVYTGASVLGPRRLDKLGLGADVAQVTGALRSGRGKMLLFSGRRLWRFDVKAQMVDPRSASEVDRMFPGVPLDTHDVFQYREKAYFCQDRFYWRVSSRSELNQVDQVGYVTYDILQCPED

B1: Variant A2M, bait region SEQ ID NO 27 (other)
chain: SVSGKPQYMVLVPSLLHTETTEKGCVLLSYLNETVTVSASLESVRGNRSLFTDLEAENDVLHCVAFAVPKSSSNEEVMFLTVQVKGPTQEFKKRTTVMVKNEDSLVFVQTDKSIYKPGQTVKFRVVSMDENFHPLNELIPLVYIQDPKGNRIAQWQSFQLEGGLKQFSFPLSSEPFQGSYKVVVQKKSGGRTEHPFTVEEFVLPKFEVQVTVPKIITILEEEMNVSVCGLYTYGKPVPGHVTVSICRKYSDASDCHGEDSQAFCEKFSGQLNSHGCFYQQVKTKVFQLKRKEYEMKLHTEAQIQEEGTVVELTGRQSSEITRTITKLSFVKVDSHFRQGIPFFGQVRLVDGKGVPIPNKVIFIRGNEANYYSNATTDEHGLVQFSINTTNVMGTSLTVRVNYKDRSPCYGYQWVSEEHEEAHHTAYLVFSPSKSFVHLEPMSHELPCGHTQTVQAHYILNGGTLLGLKKLSFYYLIMAKGGIVRTGTHGLLVKQEDMKGHFSISIPVKSDIAPVARLLIYAVLPTGDVIGDSAKYDVENCLANKVDLSFSPSQSLPASHAHLRVTAAPQSVCALRAVDQSVLLMKPDAELSASSVYNLLPEKDLTGFPGPLNDQDDEDCINRHNVYINGITYTPVSSTNEKDMYSFLEDMGLKAFTNSKIRKPKMCPQLEQYEMHGPEGEGEGEGIPENFYGVSEDLYTASELEGRGSVEEPHTKLRKYFPETWIWDLVVVNSAGVAEVGVTVPDTITEWKAGAFCLSEDAGLGISSTASLRAFQPFFVELTMPYSVIRGEAFTLKATVLNYLPKCIRVSVQLEASPAFLAVPVEKEQAPHCICANGRQTVSWAVTPKSLGNVNFTVSAEALESQELCGTEVPSVPEHGRKDTVIKPLLVEPEGLEKETTFNSLLCPSGGEVSEELSLKLPPNVVEESARASVSVLGDILGSAMQNTQNLLQMPYGCGEQNMVLFAPNIYVLDYLNETQQLTPEIKSKAIGYLNTGYQRQLNYKHYDGSYSTFGERYGRNQGNTWLTAFVLKTFAQARAYIFIDEAHITQALIWLSQRQKDNGCFRSSGSLLNNAIKGGVEDEVTLSAYITIALLEIPLTVTHPVVRNALFCLESAWKTAQEGDHGSHVYTKALLAYAFALAGNQDKRKEVLKSLNEEAVKKDNSVHWERPQKPKAPVGHFYEPQAPSAEVEMTSYVLLAYLTAQPAPTSEDLTSATNIVKWITKQQNAQGGFSSTQDTVVALHALSKYGAATFTRTGKAAQVTIQSSGTFSSKFQVDNNNRLLLQQVSLPELPGEYSMKVTGEGCVYLQTSLKYNILPEKEEFPFALGVQTLPQTCDEPKAHTSFQISLSVSYTGSRSASNMAIVDVKMVSGFIPLKPTVKMLERSNHVSRTEVSSNHVLIYLDKVSNQTLSLFFTVLQDVPVRDLKPAIVKVYDYYETDEFAIAEYNAPCSKDLGNADYKDDDDKGASHHHHHH
Protease Inhibition (% of WT) (ADAMTS5): 114 % of WT | Protease Inhibition (% of WT) (MMP1): 109 % of WT | Protease Inhibition (% of WT) (MMP8): 43 % of WT | Protease Inhibition (% of WT) (MMP13): 54 % of WT | Protease Inhibition (% of WT) (MMP2): 16 % of WT | Protease Inhibition (% of WT) (MMP9): 13 % of WT | Protease Inhibition (% of WT) (MMP3): 33 % of WT | Protease Inhibition (% of WT) (Elastase): 79 % of WT | Protease Inhibition (% of WT) (Cathepsin G): 161 % of WT | Protease Inhibition (% of WT) (MMP7): 138 % of WT

B2: Variant A2M, bait region SEQ ID NO 19 (other)
chain: SVSGKPQYMVLVPSLLHTETTEKGCVLLSYLNETVTVSASLESVRGNRSLFTDLEAENDVLHCVAFAVPKSSSNEEVMFLTVQVKGPTQEFKKRTTVMVKNEDSLVFVQTDKSIYKPGQTVKFRVVSMDENFHPLNELIPLVYIQDPKGNRIAQWQSFQLEGGLKQFSFPLSSEPFQGSYKVVVQKKSGGRTEHPFTVEEFVLPKFEVQVTVPKIITILEEEMNVSVCGLYTYGKPVPGHVTVSICRKYSDASDCHGEDSQAFCEKFSGQLNSHGCFYQQVKTKVFQLKRKEYEMKLHTEAQIQEEGTVVELTGRQSSEITRTITKLSFVKVDSHFRQGIPFFGQVRLVDGKGVPIPNKVIFIRGNEANYYSNATTDEHGLVQFSINTTNVMGTSLTVRVNYKDRSPCYGYQWVSEEHEEAHHTAYLVFSPSKSFVHLEPMSHELPCGHTQTVQAHYILNGGTLLGLKKLSFYYLIMAKGGIVRTGTHGLLVKQEDMKGHFSISIPVKSDIAPVARLLIYAVLPTGDVIGDSAKYDVENCLANKVDLSFSPSQSLPASHAHLRVTAAPQSVCALRAVDQSVLLMKPDAELSASSVYNLLPEKDLTGFPGPLNDQDDEDCINRHNVYINGITYTPVSSTNEKDMYSFLEDMGLKAFTNSKIRKPKMCPQLEHGPEGEGEGEFRGVTIPENFYGVSEDLVVQISELEGRGSVEEPHTKLRKYFPETWIWDLVVVNSAGVAEVGVTVPDTITEWKAGAFCLSEDAGLGISSTASLRAFQPFFVELTMPYSVIRGEAFTLKATVLNYLPKCIRVSVQLEASPAFLAVPVEKEQAPHCICANGRQTVSWAVTPKSLGNVNFTVSAEALESQELCGTEVPSVPEHGRKDTVIKPLLVEPEGLEKETTFNSLLCPSGGEVSEELSLKLPPNVVEESARASVSVLGDILGSAMQNTQNLLQMPYGCGEQNMVLFAPNIYVLDYLNETQQLTPEIKSKAIGYLNTGYQRQLNYKHYDGSYSTFGERYGRNQGNTWLTAFVLKTFAQARAYIFIDEAHITQALIWLSQRQKDNGCFRSSGSLLNNAIKGGVEDEVTLSAYITIALLEIPLTVTHPVVRNALFCLESAWKTAQEGDHGSHVYTKALLAYAFALAGNQDKRKEVLKSLNEEAVKKDNSVHWERPQKPKAPVGHFYEPQAPSAEVEMTSYVLLAYLTAQPAPTSEDLTSATNIVKWITKQQNAQGGFSSTQDTVVALHALSKYGAATFTRTGKAAQVTIQSSGTFSSKFQVDNNNRLLLQQVSLPELPGEYSMKVTGEGCVYLQTSLKYNILPEKEEFPFALGVQTLPQTCDEPKAHTSFQISLSVSYTGSRSASNMAIVDVKMVSGFIPLKPTVKMLERSNHVSRTEVSSNHVLIYLDKVSNQTLSLFFTVLQDVPVRDLKPAIVKVYDYYETDEFAIAEYNAPCSKDLGNADYKDDDDKGASHHHHHH
Protease Inhibition (% of WT) (ADAMTS5): 530 % of WT | Protease Inhibition (% of WT) (MMP1): 100 % of WT | Protease Inhibition (% of WT) (MMP8): 51 % of WT | Protease Inhibition (% of WT) (MMP13): 89 % of WT | Protease Inhibition (% of WT) (MMP2): 36 % of WT | Protease Inhibition (% of WT) (MMP9): 39 % of WT | Protease Inhibition (% of WT) (MMP3): 140 % of WT | Protease Inhibition (% of WT) (Elastase): 115 % of WT | Protease Inhibition (% of WT) (Cathepsin G): 90 % of WT | Protease Inhibition (% of WT) (MMP7): 137 % of WT
